Test results: US20190202883A1 (Takeda / Millennium, published 2019)
Square brackets hold non-standard residues; d marks the D form. Side chains are listed from the residue outwards. Phe(2-F) = N[C@@H](Cc1ccccc1F)C(=O)O; αMeF = C[C@](N)(Cc1ccccc1)C(=O)O; Iva = CC[C@](C)(N)C(=O)O; Oda = not defined here; Aib = CC(C)(N)C(=O)O

T1: human NPY2R (human, UniProt P49146 1-381)
T1 sequence (looked up): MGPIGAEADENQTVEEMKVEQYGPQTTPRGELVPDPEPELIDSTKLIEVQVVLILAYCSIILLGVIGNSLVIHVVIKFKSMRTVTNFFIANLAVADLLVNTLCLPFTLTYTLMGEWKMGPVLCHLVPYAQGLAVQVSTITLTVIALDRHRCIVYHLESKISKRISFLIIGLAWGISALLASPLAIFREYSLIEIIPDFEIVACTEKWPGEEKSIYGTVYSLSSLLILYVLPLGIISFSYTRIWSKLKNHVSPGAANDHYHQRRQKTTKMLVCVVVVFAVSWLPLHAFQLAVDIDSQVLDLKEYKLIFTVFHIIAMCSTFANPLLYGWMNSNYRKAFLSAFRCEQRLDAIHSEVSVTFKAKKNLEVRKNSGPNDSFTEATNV

T2: human GIPR (human, UniProt P48546 22-466)
T2 sequence (looked up): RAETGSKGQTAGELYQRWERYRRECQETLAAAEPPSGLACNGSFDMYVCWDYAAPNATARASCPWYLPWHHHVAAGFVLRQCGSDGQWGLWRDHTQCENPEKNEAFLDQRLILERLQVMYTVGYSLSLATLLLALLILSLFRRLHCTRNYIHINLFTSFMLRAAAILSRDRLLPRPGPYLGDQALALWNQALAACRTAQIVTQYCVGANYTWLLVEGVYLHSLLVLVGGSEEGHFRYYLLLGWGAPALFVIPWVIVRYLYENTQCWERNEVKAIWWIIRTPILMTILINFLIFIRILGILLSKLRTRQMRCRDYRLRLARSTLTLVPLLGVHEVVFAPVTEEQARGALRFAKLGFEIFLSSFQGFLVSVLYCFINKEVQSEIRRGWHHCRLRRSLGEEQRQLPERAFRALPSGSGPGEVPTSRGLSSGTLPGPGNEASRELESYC


Columns and labels:
Test in all cases: cell-based or functional assay
human NPY2R = target: T1, human NPY2R
human GLP-1R = human GLP-1R (human, UniProt P43220 24-463)
human GIPR = target: T2, human GIPR

Binder	Agonist activity (EC50), Cre-luc reporter assay (human NPY2R)	Agonist activity (EC50), Cre-luc reporter assay (human GLP-1R)	Agonist activity (EC50), Cre-luc reporter assay (human GIPR)
H-Y[Aib]EGT[αMeF]TSDK([Gly-Gly-Gly-Gly-Pal])SK[Aib]LDKQRQ[Iva]EFVRHLLNK[Aib]TRQRY-NH2	0.059 nM	0.13 nM	0.091 nM
H-Y[Aib]EGT[αMeF]TSDK([Gly-Gly-Gly-Gly-Oda])[Aib]I[Aib]LEKQRQ[Iva]EFVRHLLNK[Aib]TRQRY-NH2 (reading uncertain; also: printed as H-Tyr-Aib-Glu-Gly-Thr-αMePhe-Thr-Ser-Asp-Lys(-Gly-Gly-Gly-Gly-Oda)-Aib-Ile-Aib-Leu-Glu-Lys-Gln-Arg-Gln-Iva-Glu-Phe-Val-Arg-His-Leu-Leu-Asn-Lys-Aib-Thr-Arg-Gln-Arg-Tyr-NH2)	2.7 nM	0.25 nM	0.52 nM
Me-Y[Aib]EGT[αMeF]TSDK([Gly-Gly-Gly-Gly-Oda])SI[Aib]LDKQRQ[Iva]EFVRHLLNK[Aib]TRQRY-NH2 (reading uncertain; also: printed as Me-Tyr-Aib-Glu-Gly-Thr-αMePhe-Thr-Ser-Asp-Lys(-Gly-Gly-Gly-Gly-Oda)-Ser-Ile-Aib-Leu-Asp-Lys-Gln-Arg-Gln-Iva-Glu-Phe-Val-Arg-His-Leu-Leu-Asn-Lys-Aib-Thr-Arg-Gln-Arg-Tyr-NH2)	2.4 nM	1.9 nM	0.091 nM
Me-Y[Aib]EGT[αMeF]TSDK([Gly-Gly-Gly-Gly-Pal])[Aib]K[Aib]LDKQRQ[Iva]EFVRHLLNK[Aib]TRQRY-NH2	0.068 nM	0.069 nM	0.051 nM
Me-Y[Aib]EGT[αMeF]TSDK([Gly-Gly-Gly-Gly-Pal])[Aib]I[Aib]LEKQRQ[Iva]EFVRHLLNK[Aib]TRQRY-NH2	0.067 nM	0.13 nM	0.082 nM
H-Y[Aib]EGT[αMeF]TSDK([Gly-Gly-Gly-Gly-Oda])SK[Aib]LDKQRQ[Iva]EFVRHLLNK[Aib]TRQRY-NH2 (reading uncertain; also: printed as H-Tyr-Aib-Glu-Gly-Thr-αMePhe-Thr-Ser-Asp-Lys(-Gly-Gly-Gly-Gly-Oda)-Ser-Lys-Aib-Leu-Asp-Lys-Gln-Arg-Gln-Iva-Glu-Phe-Val-Arg-His-Leu-Leu-Asn-Lys-Aib-Thr-Arg-Gln-Arg-Tyr-NH2)	1.3 nM	1.3 nM	0.61 nM
H-Y[Aib]EGT[αMeF]TSDK([Gly-Gly-Gly-Gly-Pal])[Aib]I[Aib]LDKQRQ[Iva]EFVRHLLNK[Aib]TRQR[Phe(2-F)]-NH2	0.22 nM	0.38 nM	0.35 nM
H-Y[Aib]EGT[αMeF]TSDK([Gly-Gly-Gly-Gly-Pal])[Aib]I[Aib]LEKQRQ[Iva]EFVRHLLNK[Aib]TRQRY-NH2	0.057 nM	0.061 nM	0.049 nM

The next lines start with the values.

Agonist activity (EC50), Cre-luc reporter assay (human NPY2R)	Agonist activity (EC50), Cre-luc reporter assay (human GLP-1R)	Agonist activity (EC50), Cre-luc reporter assay (human GIPR)	Binder
2.4 nM	0.078 nM	0.074 nM	H-Y[Aib]EGT[αMeF]TSDK([Gly-Gly-Gly-Gly-Oda])[Aib]I[Aib]LDKQAQ[Iva]EFVRHLLNK[Aib]TRQRY-NH2 (reading uncertain; also: printed as H-Tyr-Aib-Glu-Gly-Thr-αMePhe-Thr-Ser-Asp-Lys(-Gly-Gly-Gly-Gly-Oda)-Aib-Ile-Aib-Leu-Asp-Lys-Gln-Ala-Gln-Iva-Glu-Phe-Val-Arg-His-Leu-Leu-Asn-Lys-Aib-Thr-Arg-Gln-Arg-Tyr-NH2)
0.02 nM	0.073 nM	0.048 nM	Me-Y[Aib]EGT[αMeF]TSDK([Gly-Gly-Gly-Gly-Pal])SK[Aib]LDKQRQ[Iva]EFVRHLLNK[Aib]TRQRY-NH2
1.2 nM	4.5 nM	0.38 nM	Me-Y[Aib]EGT[αMeF]TSDK([Gly-Gly-Gly-Gly-Oda])SK[Aib]LDKQRQ[Iva]EFVRHLLNK[Aib]TRQRY-NH2 (reading uncertain; also: printed as Me-Tyr-Aib-Glu-Gly-Thr-αMePhe-Thr-Ser-Asp-Lys(-Gly-Gly-Gly-Gly-Oda)-Ser-Lys-Aib-Leu-Asp-Lys-Gln-Arg-Gln-Iva-Glu-Phe-Val-Arg-His-Leu-Leu-Asn-Lys-Aib-Thr-Arg-Gln-Arg-Tyr-NH2)
3.3 nM	0.15 nM	0.074 nM	Me-Y[Aib]EGT[αMeF]TSDK([Gly-Gly-Gly-Gly-Oda])[Aib]I[Aib]LDKQAQ[Iva]EFVRHLLNK[Aib]TRQRY-NH2 (reading uncertain; also: printed as Me-Tyr-Aib-Glu-Gly-Thr-αMePhe-Thr-Ser-Asp-Lys(-Gly-Gly-Gly-Gly-Oda)-Aib-Ile-Aib-Leu-Asp-Lys-Gln-Ala-Gln-Iva-Glu-Phe-Val-Arg-His-Leu-Leu-Asn-Lys-Aib-Thr-Arg-Gln-Arg-Tyr-NH2)
1.5 nM	0.94 nM	1 nM	H-Y[Aib]EGT[αMeF]TSDK([Gly-Gly-Gly-Gly-Oda])[Aib]K[Aib]LDKQRQ[Iva]EFVRHLLNK[Aib]TRQRY-NH2 (reading uncertain; also: printed as H-Tyr-Aib-Glu-Gly-Thr-αMePhe-Thr-Ser-Asp-Lys(-Gly-Gly-Gly-Gly-Oda)-Aib-Lys-Aib-Leu-Asp-Lys-Gln-Arg-Gln-Iva-Glu-Phe-Val-Arg-His-Leu-Leu-Asn-Lys-Aib-Thr-Arg-Gln-Arg-Tyr-NH2)
0.064 nM	0.06 nM	0.044 nM	H-Y[Aib]EGT[αMeF]TSDK([Gly-Gly-Gly-Gly-Pal])[Aib]K[Aib]LDKQRQ[Iva]EFVRHLLNK[Aib]TRQRY-NH2
0.03 nM	0.043 nM	0.038 nM	Me-Y[Aib]EGT[αMeF]TSDK([Gly-Gly-Gly-Gly-Pal])[Aib]I[Aib]LDKQAQ[Iva]EFVRHLLNK[Aib]TRQRY-NH2
0.038 nM	0.042 nM	0.041 nM	H-Y[Aib]EGT[αMeF]TSDK([Gly-Gly-Gly-Gly-Pal])[Aib]I[Aib]LDKQAQ[Iva]EFVRHLLNK[Aib]TRQRY-NH2
